Results on 7 substances are retold here after patent US5747449A (Corvas International, Inc., priority 1993, dated 1998).

This test deals with Factor Xa (Homo sapiens, UniProt P00742). In words: Factor Xa amidolytic assay (chromogenic substrate). The test is classed as biochemical. The settings on record: mutants produced in E. coli; read-out: Ki (nM), inhibition constant for Factor Xa. How it is done: Trypsin, Factor Xa, thrombin, Factor XIIa and plasmin amidolytic assays […]
Briefly, the following were added to a 96-well microtiter plate well (see Table below):
50 μl inhibitor (various concentrations as required, diluted in TESA);
50 μl protease (suitable concentration, diluted in TBSA)
The plate was incubated at room temperature for 30 minutes or for 2 hours (Factor Xa); and 50 μl chromogenic substrate was added (as required, diluted in water). The initial rate was measured at […] during 10-30 minutes at room temperature.
To determine the inhibition constants, the initial rate (vi) was measured at various inhibitor ([It ]) and substrate concentrations, and the apparent inhibition constant (Ki) was determined by fitting the data obtained at each substrate concentration with the following equation: […]
vi /vo ={([Et ]-[It ]-Ki^*) +[([It […]
where vo is the uninhibited initial rate and [Et ] is the total enzyme concentration. Extrapolation of Ki^* values to zero substrate concentrations yields a value for the real inhibition constant.

Sequence of Factor Xa (P00742 235-488 limits assumed): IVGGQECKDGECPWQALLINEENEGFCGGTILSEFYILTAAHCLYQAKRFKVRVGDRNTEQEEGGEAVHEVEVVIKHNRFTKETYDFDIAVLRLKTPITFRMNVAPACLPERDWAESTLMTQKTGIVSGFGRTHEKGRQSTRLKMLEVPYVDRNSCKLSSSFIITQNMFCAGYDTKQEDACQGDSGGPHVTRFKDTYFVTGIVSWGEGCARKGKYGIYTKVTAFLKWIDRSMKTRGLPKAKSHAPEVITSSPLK
Sequence of Factor Xa (P00742 41-179 partner limits assumed): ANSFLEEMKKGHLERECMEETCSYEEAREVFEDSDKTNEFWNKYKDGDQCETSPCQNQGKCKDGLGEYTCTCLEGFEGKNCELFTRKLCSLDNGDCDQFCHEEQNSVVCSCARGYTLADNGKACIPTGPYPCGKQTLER

Broadly, the Ki is a measure of affinity in units of concentration, obtained from inhibition or displacement. Take “3L55: BPTI with substitutions 13Ile 15Arg 17Ala 18Phe 19Asn 39Leu 46Glu”: the Ki is 5 nM.
On to “3L60: BPTI with substitutions 13Ile 15Arg 17Tyr 18Tyr 19Lys 39Leu 46Glu”, for which the Ki came out at 4 nM.
To “5L48: BPTI with substitutions 11Glu 13Trp 15Arg 17Leu 18His 19His 34Ile 39Gly 46Glu” belongs 4 nM; to “5L65: BPTI with substitutions 11Ser 13Leu 15Arg 17Leu 18His 19Lys 34Tyr 39Tyr 46Glu”, 5 nM.
As to “5L68: BPTI with substitutions 11Ser 13Leu 15Arg 17Leu 18His 19Lys 34Tyr 39Phe 46Glu”, the Ki was 1.5 nM.
To “5L69: BPTI with substitutions 11Pro 13Ile 15Arg 17Leu 18His 19Lys 34Tyr 39Met 46Glu” belongs 5 nM.
Turning to “5L84: BPTI with substitutions 11Glu 13Leu 15Arg 17Leu 18His 19Lys 34Tyr 39Phe 46Glu”, the Ki turned out to be 2 nM.
